The record followed here is patent US10227388B2, “Peptides and combination of peptides for use in immunotherapy against non-small cell lung cancer and other cancers” (immatics biotechnologies GmbH, priority 2015, dated 2019).

In this test the target is HLA-A*02:01 (Homo sapiens, UniProt P04439, D140Y/D185E/D98H/E176V/E277Q/G131W/G231S/I119V/I121R/I166T/I218V/L300P/L318F/N151K/N90K/P208A/P217A/Q86G/Q94H/R138H/R169H/T345S). Briefly: MHC binding assay (UV-ligand exchange, ELISA, peptide exchange yield). The note with it: binding of HLA-class I restricted peptides to HLA-A*02:01. In outline:
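Peptide–HLA-A*02:01 complexes made by UV-ligand exchange of a UV-cleavable peptide for the test peptide. Exchange yield measured by ELISA: 100-fold diluted monomers captured on streptavidin, 1 h at 37° C., detected with HRP anti-β2m and TMB, absorbance at 450 nm.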
A general note: In an ELISA, binding on a coated surface is turned into a signal by an enzyme label.

For the substance “397 (YLFGERLLEC; listed as Homo sapiens) [compound 397]”, the “Peptide exchange (MHC class I binding score, peptide exchange yield)” value (“Peptide exchange” for short) is reported as “″+++″ (≥50% = +++)”.
As for “566 (VIADGGIQNV; listed as Homo sapiens) [compound 566]”, the entry is “″++″ (≥20% = ++)”; as for “286 (YLFPGIPEL; listed as Homo sapiens) [compound 286]”, “″+++″ (≥50% = +++)”; as for “174 (ALAQYLITA; listed as Homo sapiens) [compound 174]”, “″+++″ (≥50% = +++)”.
To “162 (YQQAQVPSV; listed as Homo sapiens) [compound 162]” belongs “″+++″ (≥50% = +++)”.
As for “567 (SLLPLDDIVRV; listed as Homo sapiens) [compound 567]”, the entry is “″+++″ (≥50% = +++)”.
Turning to “321 (GLFEDVTQPGILL; listed as Homo sapiens) [compound 321]”, the “Peptide exchange” value is “″++++″ (≥75% = ++++)”.
To “518 (KLNAEVACV; listed as Homo sapiens) [compound 518]” belongs “″+++″ (≥50% = +++)”.
As for “145 (FLATSGTLAGI; listed as Homo sapiens) [compound 145]”, the entry is “″++″ (≥20% = ++)”.
On to “327 (GLAPFTEGISFV; listed as Homo sapiens) [compound 327]”, for which the “Peptide exchange” value was “″+++″ (≥50% = +++)”.
To “202 (ALLDQQGSRWTL; listed as Homo sapiens) [compound 202]” belongs “″+++″ (≥50% = +++)”; to “442 (GLLGGGGVLGV; listed as Homo sapiens) [compound 442]”, “″+++″ (≥50% = +++)”.
As for “381 (FIDEAYVEV; listed as Homo sapiens) [compound 381]”, the entry is “″++″ (≥20% = ++)”; as for “478 (YLLHEKLNL; listed as Homo sapiens) [compound 478]”, “″+++″ (≥50% = +++)”; as for “68 (SLMELPRGLFL; listed as Homo sapiens) [compound 68]”, “″++++″ (≥75% = ++++)”.
As for “357 (SMHDLVLQV; listed as Homo sapiens) [compound 357]”, the entry is “″+++″ (≥50% = +++)”; as for “330 (QLALKVEGV; listed as Homo sapiens) [compound 330]”, “″+++″ (≥50% = +++)”.
As for “437 (SMAPGLVIQAV; listed as Homo sapiens) [compound 437]”, the “Peptide exchange” value is reported as “″+++″ (≥50% = +++)”.
As for “254 (TLLAFIMEL; listed as Homo sapiens) [compound 254]”, the entry is “″+++″ (≥50% = +++)”; as for “235 (YLNDLHEVLL; listed as Homo sapiens) [compound 235]”, “″++++″ (≥75% = ++++)”.
As for “615 (VLPPDTDPA; listed as Homo sapiens) [compound 615]”, the entry is “″++″ (≥20% = ++)”.
To “379 (IMEGTLTRV; listed as Homo sapiens) [compound 379]” belongs “″++″ (≥20% = ++)”.
Turning to “116 (YHIDEEVGF; listed as Homo sapiens) [compound 116]”, the “Peptide exchange” value is “″+″ (≥10% = +)”.
Consider “159 (GLVGNPLPSV; listed as Homo sapiens) [compound 159]”, for which the “Peptide exchange” value is “″++++″ (≥75% = ++++)”.
To “209 (KLIESKHEV; listed as Homo sapiens) [compound 209]” belongs “″++″ (≥20% = ++)”.
